US20220017616A1 (published 2022)
Residue numbers refer to the chain shown, from its start.

T1: human TIGIT (UniProt Q495A1 22-244)
T1 chain: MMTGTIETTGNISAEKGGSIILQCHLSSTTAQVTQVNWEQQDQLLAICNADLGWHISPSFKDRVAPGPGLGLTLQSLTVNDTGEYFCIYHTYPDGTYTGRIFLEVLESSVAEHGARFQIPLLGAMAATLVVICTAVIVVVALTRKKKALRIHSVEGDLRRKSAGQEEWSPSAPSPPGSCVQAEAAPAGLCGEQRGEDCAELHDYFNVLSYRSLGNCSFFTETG

T2: human CD112R (N81D)
T2 chain: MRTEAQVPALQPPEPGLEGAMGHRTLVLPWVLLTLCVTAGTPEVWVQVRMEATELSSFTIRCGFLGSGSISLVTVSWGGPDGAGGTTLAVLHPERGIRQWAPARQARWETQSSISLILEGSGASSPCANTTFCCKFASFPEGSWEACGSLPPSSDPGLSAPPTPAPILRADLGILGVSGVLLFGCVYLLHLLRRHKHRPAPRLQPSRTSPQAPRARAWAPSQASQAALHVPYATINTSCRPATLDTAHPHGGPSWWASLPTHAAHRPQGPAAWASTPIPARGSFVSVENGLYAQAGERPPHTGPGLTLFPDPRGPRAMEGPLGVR

B1: 55G7.041 (antibody, V domains shown)
VH: EVQLVESGGGVVQPGGSLRLSCAASGFTFSSYGMHWVRQAPGKGLEWVALIWFDESNIYYADAVKGRFTISRDNAKNTLYLQMNSLRAEDTAVYFCARGYDLLTGYYNFDFWGQGTLVTVSS
VL: QAGLTQPPSVSKGLRQTATLTCTGNANNVGNRGAAWLQQHQGHPPKLLSYRNNNRPSGISERLSASRSGNTASLTITGLQPEDEADYYCSAWDSSLSAWVFGGGTKLTVLG
B2: 66H9.009 (antibody, V domains shown)
VH: QVQLQESGPGLVKPSETLSLTCTVSGGSISSVYFYWNWIRQPPGKGLEWIGYIYYSGGTYYNPSLRSRVTISVDTSKNQFSLKLNSVTAADTAVYYCARGSIAAGGGYFYYNDMDVWGQGTTVTVSS
VL: EIVLTQSPDFQSVTPKEKVAITCRASQSIGSSLHWYQQKPDQSPKPLIKYVSQSFSGVPSRFSGSGSGTDFTLTINSLEAEDAATYYCHQSSSLPLTFGGGTKVEIKR
B3: 58A7.003.008 (antibody, V domains shown)
VH: QVQLQESGPGLVKPSETLSLTCTVSGGSISSGGYYWNWIRQPPGKGLEWIGYIYYSGSTFYNPSLKSRVTISVDTSKNQFSLKLSSVTAADTAVYYCARAPRYNWNYGWFDPWGQGTLVTVSS
VL: EIVLTQSPGTLSLSPGERATLSCRASQQVSSTYLAWYQQKPGQAPRLLFYGASSRATGIPDRFSRSGSGTDFTLTISRLEPEDFAVYYCQQYDVSPWTFGQGTKVEIKR
B4: 43B7.002.015 (antibody, V domains shown)
VH: QVQLQESGPGLVKPSETLSLTCTVSGGSISSGGYYWSWIRQHPGKGLEWIGYIYYRGGTYYNPSLRSRVTMSVDTSKNQFSLRLSSVTAADTAVYYCARTIFGVIILDNWGQGTPVTVSS
VL: DIQMTQSPSSLSASVGDRVTITCRSSQSISSYLNWYQQKPGRAPKLLIYAASSLQSGVPSRFSGSGSGTDFTLTISSLQPEDFASYYCQQSYTTPPTFGGGTKVEIKR
B5: 29E10 (antibody, V domains shown)
VH: EVQLVESGGGLVQPGGSLRLSCAASGFTFRNYDMHWVRQVPGKGLEWVSDIGNSGETYYLGSVKGRFTISRENAKNSLYLQMNSLRAGDTAVYYCVREEFGYGMDVWGQGTTVTVSS
VL: DIQMTQSPSSLSASVGDRVTITCRASQGIRNDLGWYQQKPGKAPKRLIYAASSLQSGVPSRFSGSGSGTEFTLTISSLQPEDFATYYCLQHNSYPLTFGGGTKVEIKR
B6: 1E1.016 (antibody, V domains shown)
VH: QVQLVQSGAEVKKPGASVKVSCKASGYTFTDYYIYWVRQAPGQGLEWMGWINPNAGGTNYAQKFQGRVTMTRDTSISTAYIELSRLRSDDTAVYYCAREDNFNGMDVWGQGTTVTVSS
VL: B5 VL with H91L, S93A
B7: 24F1 (antibody, V domains shown)
VH: EVQLVESGGGLVQPGGSLRLSCAASGFTFSRDDMHWVRQATGKGLEWVAGIDNAGDTYYPGSVKGRFTISRENAKNSLYLQMNSLRAGDTAIYYCAREGQWPYGMDVWGQGTTVTVSS
VL: B5 VL with A50S, P59S, H91S
B8: 24F1.001 (antibody, V domains shown)
VH: B7 VH with D56E
VL: B5 VL with A50S, P59S, H91S
B9: human CD112R (receptor)
chain: TPEVWVQVRMEATELSSFTIRCGFLGSGSISLVTVSWGGPNGAGGTTLAVLHPERGIRQWAPARQARWETQSSISLILEGSGASSPCANTTFCCKFASFPEGSWEACGSLPPSSDPGLSAPPTPAPILRADLAGILGVSGVLLFGCVYLLHLLRRHKHRPAPRLQPSRTSPQAPRARAWAPSQASQAALHVPYATINTSCRPATLDTAHPHGGPSWWASLPTHAAHRPQGPAAWASTPIPARGSFVSVENGLYAQAGERPPHTGPGLTLFPDPRGPRAMEGPLGVR

Target: T1, human TIGIT
Test: Biacore SPR

Question: B1 was tested. Which Kd did it give?
Answer: Its Kd is 0.228 nM.

Question: Which Kd does the source give for B2 here?
Answer: The Kd was 0.0523 nM.

Question: For B3, which Kd is on record?
Answer: The Kd was 0.283 nM.

Question: With B4 as the binder, how does the Kd read?
Answer: Its Kd is 0.0519 nM.

What follows are binders tested against cynomolgus TIGIT (assay: Biacore SPR).
Chain of cynomolgus TIGIT (chain, as listed by the source): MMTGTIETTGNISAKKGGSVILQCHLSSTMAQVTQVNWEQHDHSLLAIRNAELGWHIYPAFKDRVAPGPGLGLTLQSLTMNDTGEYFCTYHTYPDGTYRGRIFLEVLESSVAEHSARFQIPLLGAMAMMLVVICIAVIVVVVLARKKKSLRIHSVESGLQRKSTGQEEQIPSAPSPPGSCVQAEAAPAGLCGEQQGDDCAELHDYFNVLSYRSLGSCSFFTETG

Question: Which Kd does the source give for B1 here?
Answer: The Kd was 25 nM.

Question: Which Kd does the source give for B2 here?
Answer: The Kd was 34.7 nM.

Question: Which Kd does the source give for B3 here?
Answer: Its Kd is 9.39 nM.

Question: How did the Kd turn out when B4 was run?
Answer: Its Kd is 13 nM.

Target: T2, human CD112R (N81D)
Test: Biacore SPR

Question: For B5, which Kd is on record?
Answer: The Kd was 0.126 nM.

Question: How did the Kd turn out when B6 was run?
Answer: The Kd was 0.25 nM.

Question: For B7, which Kd is on record?
Answer: Its Kd is 0.0506 nM.

Question: How did the Kd turn out when B8 was run?
Answer: Its Kd is 0.0594 nM.

These binders were tested against 31B3.001 (assay: Biacore SPR).

Question: How did the Kd turn out when B9 was run?
Answer: Its Kd is 2.29 nM.
